# Reference: paper PMC11551746, “The Swi5–Sfr1 complex regulates Dmc1- and Rad51-driven DNA strand exchange proceeding through two distinct three-stranded intermediates by different mechanisms” (Nucleic Acids Research, 2024)
# T1: Dmc1 (Schizosaccharomyces pombe, UniProt O42634)
# T1 construct: purified as described previously; filament on ssDNA
# T1 sequence (O42634 1-332): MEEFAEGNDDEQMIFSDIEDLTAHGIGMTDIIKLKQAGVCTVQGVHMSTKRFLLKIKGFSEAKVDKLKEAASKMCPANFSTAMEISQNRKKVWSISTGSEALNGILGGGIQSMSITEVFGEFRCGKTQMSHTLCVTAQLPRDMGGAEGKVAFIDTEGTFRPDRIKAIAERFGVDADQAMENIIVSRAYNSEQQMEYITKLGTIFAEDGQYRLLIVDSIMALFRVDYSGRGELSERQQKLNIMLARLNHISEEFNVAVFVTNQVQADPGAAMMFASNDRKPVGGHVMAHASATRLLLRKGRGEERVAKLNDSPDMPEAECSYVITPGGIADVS
# T2: Rad51 (Schizosaccharomyces pombe, UniProt P36601)
# T2 construct: purified as described previously; filament on ssDNA
# T2 sequence (P36601 1-365): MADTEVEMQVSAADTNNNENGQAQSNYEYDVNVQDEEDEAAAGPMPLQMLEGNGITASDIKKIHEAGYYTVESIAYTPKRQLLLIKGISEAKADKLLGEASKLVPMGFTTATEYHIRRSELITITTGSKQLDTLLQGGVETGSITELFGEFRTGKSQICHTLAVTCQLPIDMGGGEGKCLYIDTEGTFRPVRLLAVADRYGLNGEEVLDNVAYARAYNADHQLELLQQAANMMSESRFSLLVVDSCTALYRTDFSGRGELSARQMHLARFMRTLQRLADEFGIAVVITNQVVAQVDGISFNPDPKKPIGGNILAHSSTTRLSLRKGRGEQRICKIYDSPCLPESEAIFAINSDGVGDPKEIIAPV
# T3: Dmc1 (Schizosaccharomyces pombe? (fission …, UniProt O42634 1-332))
# T3 sequence: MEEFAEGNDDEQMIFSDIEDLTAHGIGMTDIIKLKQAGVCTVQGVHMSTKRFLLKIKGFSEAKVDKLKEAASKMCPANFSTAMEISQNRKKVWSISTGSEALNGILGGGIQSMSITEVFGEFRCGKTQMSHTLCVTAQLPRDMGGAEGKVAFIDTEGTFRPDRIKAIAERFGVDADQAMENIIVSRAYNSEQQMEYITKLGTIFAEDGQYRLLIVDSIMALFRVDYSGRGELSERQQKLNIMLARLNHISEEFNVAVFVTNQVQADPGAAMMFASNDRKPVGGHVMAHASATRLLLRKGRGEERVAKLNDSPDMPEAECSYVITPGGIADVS
# T4: Rad51 (Schizosaccharomyces pombe? (fission …, UniProt P36601 1-365))
# T4 sequence: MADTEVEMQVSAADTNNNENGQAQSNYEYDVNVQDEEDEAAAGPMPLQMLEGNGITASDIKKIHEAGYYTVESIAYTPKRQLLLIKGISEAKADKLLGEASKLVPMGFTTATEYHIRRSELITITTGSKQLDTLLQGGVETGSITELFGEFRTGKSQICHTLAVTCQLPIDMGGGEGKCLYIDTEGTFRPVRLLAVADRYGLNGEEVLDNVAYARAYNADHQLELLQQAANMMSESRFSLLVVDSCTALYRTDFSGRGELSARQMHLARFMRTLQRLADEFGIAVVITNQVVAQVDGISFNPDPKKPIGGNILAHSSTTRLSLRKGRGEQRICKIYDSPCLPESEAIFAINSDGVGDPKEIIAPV
# Tests used:
# Dmc1 [1] = biological target: T1, Dmc1; experiment: fluorescence anisotropy of Dmc1-ssDNA filament; FRET strand exchange; type: binding; details: 1 mM AMP-PNP, 3 mM MgCl2, 100 mM KCl, pH 7.5, 25 °C, TAMRA-oligo dT (anisotropy); compared with ATP
# Rad51 [2] = biological target: T2, Rad51; experiment: fluorescence anisotropy of Rad51-ssDNA filament; type: binding; details: 1 mM AMP-PNP, 3 mM MgCl2, 100 mM KCl, pH 7.5, 25 °C, TAMRA-oligo dT; compared with ATP
# Dmc1 [3] = biological target: T1, Dmc1; experiment: FRET real-time DNA strand pairing and displacement; type: biochemical; details: 1 mM ATP, 5 mM MgCl2, 25 mM KCl, pH 7.5, 30 °C, 83-mer ssDNA, 40-83 bp dsDNA; compared with ADP
# Dmc1 [4] = biological target: T3, Dmc1; experiment: fluorescence anisotropy; 1 mM AMP-PNP, Mg2+; Hill fit; 30 mM HEPES-KOH pH 7.5, 100 mM KCl, 3 mM MgCl2 or CaCl2, 1 mM DTT, 5% glycerol, 1 mM adenine nucleotide, 3 uM (nt) TAMRA-dT72, 25 C; details: protein: recombinant; label: 5' TAMRA; single-stranded
# Dmc1 [5] = biological target: T3, Dmc1; experiment: fluorescence anisotropy; 1 mM ADP, Mg2+; Hill fit; 30 mM HEPES-KOH pH 7.5, 100 mM KCl, 3 mM MgCl2 or CaCl2, 1 mM DTT, 5% glycerol, 1 mM adenine nucleotide, 3 uM (nt) TAMRA-dT72, 25 C; details: protein: recombinant; label: 5' TAMRA; single-stranded
# Dmc1 [6] = biological target: T3, Dmc1; experiment: fluorescence anisotropy; ssDNA preincubated with Swi5-Sfr1 (0.1 uM or more), ATP?, Mg2+; Hill fit; 30 mM HEPES-KOH pH 7.5, 100 mM KCl, 3 mM MgCl2 or CaCl2, 1 mM DTT, 5% glycerol, 1 mM adenine nucleotide, 3 uM (nt) TAMRA-dT72, 25 C; details: protein: recombinant; label: 5' TAMRA; single-stranded
# Rad51 [7] = biological target: T4, Rad51; experiment: fluorescence anisotropy; 1 mM ATP, 3 mM Mg2+; Hill fit; 30 mM HEPES-KOH pH 7.5, 100 mM KCl, 3 mM MgCl2 or CaCl2, 1 mM DTT, 5% glycerol, 1 mM adenine nucleotide, 3 uM (nt) TAMRA-dT72, 25 C; details: protein: recombinant; label: 5' TAMRA; single-stranded
# Dmc1 [8] = biological target: T3, Dmc1; experiment: as above; details: protein: recombinant; label: 5' TAMRA; single-stranded
# Dmc1 [9] = biological target: T3, Dmc1; experiment: fluorescence anisotropy; 3 mM Ca2+ in place of Mg2+, ATP?; Hill fit; 30 mM HEPES-KOH pH 7.5, 100 mM KCl, 3 mM MgCl2 or CaCl2, 1 mM DTT, 5% glycerol, 1 mM adenine nucleotide, 3 uM (nt) TAMRA-dT72, 25 C; details: protein: recombinant; label: 5' TAMRA; single-stranded
molecule,measurement,setting,value
Nc1ncnc2c1ncn2[C@@H]1O[C@H](COP(=O)(O)OP(=O)(O)NP(=O)(O)O)[C@@H](O)[C@H]1O [AMP–PNP],fluorescence anisotropy of Dmc1-ssDNA filament; FRET strand exchange,Dmc1 [1],AMP–PNP strongly stabilizes the Dmc1–ssDNA filament
same,fluorescence anisotropy of Rad51-ssDNA filament,Rad51 [2],AMP–PNP significantly stabilized the Rad51 filament
Nc1ncnc2c1ncn2[C@@H]1O[C@H](COP(=O)(O)OP(=O)(O)OP(=O)(O)O)[C@@H](O)[C@H]1O [ATP],FRET real-time DNA strand pairing and displacement,Dmc1 [3],the ATP-bound form of Dmc1 is sufficient for three-stranded intermediate formation
[TAMRA]dT72 (ssDNA) DNA: TTTTTTTTTTTTTTTTTTTTTTTTTTTTTTTTTTTTTTTTTTTTTTTTTTTTTTTTTTTTTTTTTTTTTTTT,Kd,Dmc1 [4],547 nM
same,Kd,Dmc1 [5],1970 nM
same,Kd,Dmc1 [6],~510 nM
same,Kd,Rad51 [7],308 nM
same,Kd,Dmc1 [8],1220 nM
same,Kd,Dmc1 [9],227 nM
